Experimental data: article doi:10.64898/2025.12.08.693039
pKd: −log10 of the molar value.

Test system: LexA (Escherichia coli)
Assay: EMSA
Settings: 0.5 nM DNA or nucleosome, 10 mM Tris-HCl pH 8.0, 130 mM NaCl, 10% glycerol, 0.0075% Tween-20, room temperature, 20 min; 5% native acrylamide gel in 0.3x TBE

YNN1-LexO naked DNA
pKd: > 8.30
